This note sets out measurements from patent US6683057.

This assay has as its target Gβγ (βγ subunit of the heterotrimeric G protein) (rabbit). In words: cell-based or functional assay.

Turning to “βARKCT (βARK-1-(495-689) polypeptide; Met-Gly495-Leu689 of bovine β-adrenergic receptor kinase-1) (from UniProt P21146 495-689)”, the EGF activation of MAP kinase in cultured vascular smooth muscle cells (versus empty virus treated cells) was -7%, the LPA activation of MAP kinase in cultured vascular smooth muscle cells (versus empty virus treated cells) is -58%, the basal MAP kinase activity in cultured vascular smooth muscle cells (versus empty virus treated cells) amounted to 18% and the serum activation of MAP kinase in cultured vascular smooth muscle cells (versus empty virus treated cells) was -38%.
